The values that follow come from EP0533846B1.

The target in assay [1] is human ciliary neurotrophic factor receptor (CNTFR) (human). In words: iodinated CNTF bound to SH-SY5Y cells first, then PI-PLC 500 mU/ml for 45 min; no cold excess.
The target is the same in assay [2]. The assay is described as follows: approx. 100 pM iodinated CNTF on SH-SY5Y cells pre-treated with PI-PLC 500 mU/ml; with thousand-fold excess unlabelled CNTF (non-specific).
The target is the same in assay [3]. In words: monolayer binding of 2.16 nM 125I-CNTF to COS cells transfected with clone I2 (6.5 x 10^4 cells/well); cpm with 1000-fold excess unlabelled CNTF subtracted.
Assay [4] shares this target. The assay is described as follows: approx. 100 pM iodinated CNTF on SH-SY5Y cells; control pre-treatment without PI-PLC; with thousand-fold excess unlabelled CNTF (non-specific).
For assay [5] the target is unchanged. In words: monolayer binding of 2.16 nM 125I-CNTF to SH-SY5Y cells (3 x 10^5 cells/well, endogenous receptor); specific cpm per cell.
The target is the same in assay [6]. In words: monolayer binding of 2.16 nM 125I-CNTF to SH-SY5Y cells (3 x 10^5 cells/well, endogenous receptor); cpm with 1000-fold excess unlabelled CNTF subtracted.
For assay [7] the target is unchanged. The assay is described as follows: iodinated CNTF bound to SH-SY5Y cells first, then PI-PLC 500 mU/ml for 45 min; with excess unlabelled CNTF (non-specific).
Assay [8] shares this target. The assay is described as follows: monolayer binding of 2.16 nM 125I-CNTF to COS cells transfected with clone I2 (6.5 x 10^4 cells/well); specific cpm per cell.
The target is the same in assay [9]. In words: iodinated CNTF bound to SH-SY5Y cells first, then incubation without PI-PLC; no cold excess.
The target is the same in assay [10]. The assay is described as follows: approx. 100 pM iodinated CNTF on SH-SY5Y cells pre-treated with PI-PLC 500 mU/ml (receptor released before binding); no cold excess.
For assay [11] the target is unchanged. The assay is described as follows: iodinated CNTF bound to SH-SY5Y cells first, then incubation without PI-PLC; with excess unlabelled CNTF (non-specific).
Assay [12] has the same target. The assay is described as follows: approx. 100 pM iodinated CNTF on SH-SY5Y cells; control pre-treatment without PI-PLC; no cold excess.
The target is the same in assay [13]. In words: indirect binding: CNTF-myc, 9E10 antibody, FITC-labelled goat anti-mouse antibody, FACS on transfected COS cells.
Assay [14] shares this target. The assay is described as follows: indirect binding assay on COS cells transfected with clone I13: 1 ug/ml CNTF-myc, 9E10, 125I goat anti-mouse antibody; hand-held gamma counter.
Assay [15] has the same target. The assay is described as follows: indirect binding assay on COS cells transfected with clone I9: 1 ug/ml CNTF-myc, 9E10, 125I goat anti-mouse antibody; hand-held gamma counter.
For assay [16] the target is unchanged. In words: indirect binding assay on COS cells transfected with clone I5: 1 ug/ml CNTF-myc, 9E10, 125I goat anti-mouse antibody; hand-held gamma counter.
Assay [17] shares this target. The assay is described as follows: indirect binding assay on COS cells transfected with clone I15: 1 ug/ml CNTF-myc, 9E10, 125I goat anti-mouse antibody; hand-held gamma counter.
The target is the same in assay [18]. The assay is described as follows: indirect binding assay on COS cells transfected with clone I1: 1 ug/ml CNTF-myc, 9E10, 125I goat anti-mouse antibody; hand-held gamma counter.
The target is the same in assay [19]. In words: indirect binding assay on COS cells transfected with clone I4: 1 ug/ml CNTF-myc, 9E10, 125I goat anti-mouse antibody; hand-held gamma counter.
Assay [20] shares this target. In words: indirect binding assay on COS cells transfected with clone I8: 1 ug/ml CNTF-myc, 9E10, 125I goat anti-mouse antibody; hand-held gamma counter.
For assay [21] the target is unchanged. The assay is described as follows: indirect binding assay on COS cells transfected with clone I6: 1 ug/ml CNTF-myc, 9E10, 125I goat anti-mouse antibody; hand-held gamma counter.
Assay [22] shares this target. The assay is described as follows: indirect binding assay on COS cells transfected with clone I7: 1 ug/ml CNTF-myc, 9E10, 125I goat anti-mouse antibody; hand-held gamma counter.
For assay [23] the target is unchanged. The assay is described as follows: indirect binding assay on COS cells transfected with clone I10: 1 ug/ml CNTF-myc, 9E10, 125I goat anti-mouse antibody; hand-held gamma counter.
For assay [24] the target is unchanged. The assay is described as follows: indirect binding assay on COS cells transfected with clone I11: 1 ug/ml CNTF-myc, 9E10, 125I goat anti-mouse antibody; hand-held gamma counter.
The target is the same in assay [25]. In words: indirect binding assay on COS cells transfected with clone I14: 1 ug/ml CNTF-myc, 9E10, 125I goat anti-mouse antibody; hand-held gamma counter.
The target is the same in assay [26]. The assay is described as follows: indirect binding assay on COS cells transfected with clone I2: 1 ug/ml CNTF-myc, 9E10, 125I goat anti-mouse antibody; hand-held gamma counter.
Assay [27] shares this target. In words: indirect binding assay on COS cells transfected with clone I12: 1 ug/ml CNTF-myc, 9E10, 125I goat anti-mouse antibody; hand-held gamma counter.

Turning to “125I-hCNTF (iodinated human ciliary neurotrophic factor) (from UniProt P26441 1-200) (ligand)”, the CPM Bound is 1060 CPM in [1]; 310 CPM in assay [2]; 370 CPM in [4]; 300 CPM in [7]; 1250 CPM in assay [9]; 420 CPM in assay [10]. In addition, the CPM Bound came out at 310 CPM in [11] and 1440 CPM in [12]. In addition, the Specific cpm bound worked out at 1410 cpm in assay [3] and 1280 cpm in [6]. The cpm/cell in assay [5] turned out to be 0.00428 cpm/cell; in [8] it was 0.0217 cpm/cell.

The substance “CNTF/myc (CNTF carrying a C-terminal ten amino acid c-myc epitope tag) (ligand)” yielded a fold increase (FACS fluorescence) against cells transfected with negative clones in assay [13] of 100 fold. The CPM bound (125I-GaM) in assay [14] was 8000 CPM; in assay [15] it was 7000 CPM; in [16], 2000 CPM; in assay [17] it was 8000 CPM; in assay [18], 2000 CPM; in assay [19], 9000 CPM. Further, the CPM bound (125I-GaM) in [20] worked out at 7500 CPM; in assay [21] it was 1600 CPM; in [22], 6000 CPM; in assay [23], 4500 CPM; in [24] it was 7000 CPM; in assay [25] it was 10000 CPM. Besides, the CPM bound (125I-GaM) in [26] stood at 8500 CPM; in [27] it was 5000 CPM.
